# From publication PMC6453562
# Legend:
# Assay in all cases: native gel or EMSA
# [1] = biological target: B41 SOSIP.v4.1-His trimer (HIV-1 (B41))
# [2] = biological target: BG505 SOSIP.664 trimer (HIV-1 (BG505)) (UniProt Q2N0S6)
# [3] = biological target: BG505 SOSIP.664-His trimer (HIV-1 (BG505)) (UniProt Q2N0S6)
substance,measurement,setting,value
B41 SOSIP.v4.1-His trimer (complex),stoichiometry N,[1],3
BG505 SOSIP.664 trimer (from UniProt Q2N0S6 1-860; Q2N0S6 1-860) (complex),stoichiometry N,[2],3
BG505 SOSIP.664-His trimer (from UniProt Q2N0S6 1-860; Q2N0S6 1-860) (complex),stoichiometry N,[3],3
